Experiment [1] concerns the target Pex22 (Saccharomyces cerevisiae) (UniProt P39718). Particulars: cited from earlier work.
Experiment [2] addresses T1, Arabidopsis thaliana PEX22 residues 111-283 (soluble PEX4-interacting domain) (Arabidopsis thaliana, UniProt Q9LSX7 111-283).
T1 construct: two N-terminal residues left from the PreScission cleavage site (LEVLFQ|GP); Made on one chain with His6-MBP-PEX4 and separated from it by PreScission cleavage; also called At PEX22; source: purified (Ni-NTA), released with PreScission protease
T1 sequence: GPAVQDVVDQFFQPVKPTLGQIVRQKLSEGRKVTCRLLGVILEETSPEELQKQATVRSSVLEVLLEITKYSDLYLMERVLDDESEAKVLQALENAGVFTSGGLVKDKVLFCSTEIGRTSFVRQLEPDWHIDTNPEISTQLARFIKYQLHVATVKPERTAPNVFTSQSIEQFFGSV
Kind of experiment: crystal structure; PEX4-PEX22^111-283 complex from the cleaved fusion, 20 mg/mL in 20 mM Tris pH 7.5, 200 mM NaCl, 1 mM DTT; sitting drop vapor diffusion at 20°C; 100 mM NaCl, 100 mM Bis-Tris Propane pH 9.0, 25% (w/v) PEG 1,500. Particulars: both partners purified.

For experiment [3], the target named is T1, Arabidopsis thaliana PEX22 residues …. The experiment in a line: pull-down; purified fusion cut with PreScission protease; His6-MBP-PEX4 or His6-MBP-pex4^P123L held on Ni-NTA resin, 1 h at 4°C; washed with buffer A (25 mM HEPES pH 8, 300 mM NaCl, 5% glycerol, 1 mM TCEP), eluted with buffer B (500 mM imidazole); SDS-PAGE and Coomassie staining. Particulars: both partners purified.

Consider four molecules from PMC8922245, “The Structure of the Arabidopsis PEX4-PEX22 Peroxin Complex—Insights Into Ubiquitination at the Peroxisomal Membrane” (Frontiers in Cell and Developmental Biology, 2022).

What is called Kd is the concentration at which binding is half-saturated.

Pex22 (Saccharomyces cerevisiae), sequence (P39718 whole entry, the tested form may be a part): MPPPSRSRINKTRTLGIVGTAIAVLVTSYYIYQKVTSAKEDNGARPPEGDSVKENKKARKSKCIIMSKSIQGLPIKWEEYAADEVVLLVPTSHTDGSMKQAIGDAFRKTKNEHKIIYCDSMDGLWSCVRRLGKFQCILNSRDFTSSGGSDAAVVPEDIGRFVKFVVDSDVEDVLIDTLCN

Turning to Pex4 (from UniProt P29340), the Kd in experiment [1] is 2 nM.

B1: Arabidopsis thaliana PEX4 (full-length, His6-MBP removed) (enzyme)
chain: SMQASRARLFKEYKEVQREKVADPDIQLICDDTNIFKWTALIKGPSETPYEGGVFQLAFSVPEPYPLQPPQVRFLTKIFHPNVHFKTGEICLDILKNAWSPAWTLQSVCRAIIALMAHPEPDSPLNCDSGNLLRSGDVRGFNSMAQMYTRLAAMPKKGLEVLFQ
notes: one residue left after the TEV protease cleavage site (ENLYFQ|S); residue 0 at the N-terminus; PEX4 (UBC21), Arabidopsis thaliana, At5g25760, full-length without stop codon, residues 1-157; six C-terminal residues left from the PreScission cleavage site (LEVLFQ|GP); residues 158-163; Model in PDB 6XOD holds residues 1-154; residue 0, 155-157 and 158-163 were disordered; also called At PEX4; …
Regarding B1, the binding result in experiment [2] was “binds”.

B2: His6-MBP-PEX4 (Arabidopsis thaliana PEX4, full-length, after PreScission cleavage of the fusion) (enzyme)
chain: MQASRARLFKEYKEVQREKVADPDIQLICDDTNIFKWTALIKGPSETPYEGGVFQLAFSVPEPYPLQPPQVRFLTKIFHPNVHFKTGEICLDILKNAWSPAWTLQSVCRAIIALMAHPEPDSPLNCDSGNLLRSGDVRGFNSMAQMYTRLAAMPKKGLEVLFQ
notes: PEX4 (UBC21), Arabidopsis thaliana, At5g25760, full-length without stop codon; C-terminal residues left from the PreScission cleavage site (LEVLFQ|GP); His6-MBP is joined to PEX4 by a linker with an uncut TEV site (ENLYFQ|S); source: purified (Ni-NTA), cleaved with PreScission protease only; not shown: His6, N-terminal, kept; MBP, N-terminal, kept
Take B2: the binding result in experiment [3] is listed as “binds”.

B3: His6-MBP-pex4^P123L (pex4-1 protein, after PreScission cleavage of the fusion) (enzyme, Arabidopsis thaliana)
chain: MQASRARLFKEYKEVQREKVADPDIQLICDDTNIFKWTALIKGPSETPYEGGVFQLAFSVPEPYPLQPPQVRFLTKIFHPNVHFKTGEICLDILKNAWSPAWTLQSVCRAIIALMAHPEPDSLLNCDSGNLLRSGDVRGFNSMAQMYTRLAAMPKKGLEVLFQ
notes: PEX4 (UBC21), Arabidopsis thaliana, At5g25760, full-length without stop codon, with the pex4-1 missense change P123L; C-terminal residues left from the PreScission cleavage site (LEVLFQ|GP); pex4-1 is a missense allele isolated in a forward-genetic screen; His6-MBP is joined by a linker with an uncut TEV site (ENLYFQ|S); source: purified (Ni-NTA), cleaved with PreScission protease only; not …
As to B3, the binding result in experiment [3] is “binds”.
